In patent publication US20200270325A1 (Merck Sharp & Dohme, published 2020):
Numbered stars: 1 amine (or outer) side, 2 acyl side, 3 side chain; on linkers, the order of the positions; unused ones are H or OH. Square brackets hold non-standard residues; d marks the D form. Primed or numbered codes have the meaning given here. Side chains are listed from the residue outwards. Ends that are not written are not given here. * marks the point of attachment. Phe(4-CH2NH2) = NCc1ccc(C[C@H](N)C(=O)O)cc1; C18 diacid = O=C(O)CCCCCCCCCCCCCCCCC(=O)*; C16 diacid = O=C(O)CCCCCCCCCCCCCCC(=O)*; γGlu = O=C(O)[C@H](CCC(=O)[*:2])N[*:1]; Met(O2) = CS(=O)(=O)CC[C@H](N)C(=O)O; αMeD = C[C@](N)(CC(=O)O)C(=O)O; αMeS = C[C@](N)(CO)C(=O)O; PEG2′ = not defined here; AEEA = NCCOCCOCC(=O)O; Aib = CC(C)(N)C(=O)O

B1: TP620 (peptide)
peptide: H[αMeS]QGTFTSDYSKYLD[Aib]RAAK([AEEA-AEEA-γGlu-C18 diacid])DFVQWL[Met(O2)][αMeD]T-NH2
modifications: N-terminus assumed
SMILES: CC(C)C[C@H](NC(=O)[C@H](Cc1ccc(O)cc1)NC(=O)[C@H](CCCCN)NC(=O)[C@H](CO)NC(=O)[C@H](Cc1ccc(O)cc1)NC(=O)[C@H](CC(=O)O)NC(=O)[C@H](CO)NC(=O)[C@@H](NC(=O)[C@H](Cc1ccccc1)NC(=O)[C@@H](NC(=O)CNC(=O)[C@H](CCC(N)=O)NC(=O)[C@](C)(CO)NC(=O)[C@@H](N)Cc1c[nH]cn1)[C@@H](C)O)[C@@H](C)O)C(=O)N[C@@H](CC(=O)O)C(=O)NC(C)(C)C(=O)N[C@@H](CCCNC(=N)N)C(=O)N[C@@H](C)C(=O)N[C@@H](C)C(=O)N[C@@H](CCCCNC(=O)COCCOCCNC(=O)COCCOCCNC(=O)CC[C@H](NC(=O)CCCCCCCCCCCCCCCCC(=O)O)C(=O)O)C(=O)N[C@@H](CC(=O)O)C(=O)N[C@@H](Cc1ccccc1)C(=O)N[C@H](C(=O)N[C@@H](CCC(N)=O)C(=O)N[C@@H](Cc1c[nH]c2ccccc12)C(=O)N[C@@H](CC(C)C)C(=O)N[C@@H](CCS(C)(=O)=O)C(=O)N[C@@](C)(CC(=O)O)C(=O)N[C@H](C(N)=O)[C@@H](C)O)C(C)C
B2: TP621 (peptide)
peptide: H[αMeS]QGTFTSDYSKYLD[Aib]RAAQK([AEEA-AEEA-γGlu-C18 diacid])FVQWL[Met(O2)][αMeD]T-NH2
modifications: N-terminus assumed
SMILES: CC(C)C[C@H](NC(=O)[C@H](Cc1ccc(O)cc1)NC(=O)[C@H](CCCCN)NC(=O)[C@H](CO)NC(=O)[C@H](Cc1ccc(O)cc1)NC(=O)[C@H](CC(=O)O)NC(=O)[C@H](CO)NC(=O)[C@@H](NC(=O)[C@H](Cc1ccccc1)NC(=O)[C@@H](NC(=O)CNC(=O)[C@H](CCC(N)=O)NC(=O)[C@](C)(CO)NC(=O)[C@@H](N)Cc1c[nH]cn1)[C@@H](C)O)[C@@H](C)O)C(=O)N[C@@H](CC(=O)O)C(=O)NC(C)(C)C(=O)N[C@@H](CCCNC(=N)N)C(=O)N[C@@H](C)C(=O)N[C@@H](C)C(=O)N[C@@H](CCC(N)=O)C(=O)N[C@@H](CCCCNC(=O)COCCOCCNC(=O)COCCOCCNC(=O)CC[C@H](NC(=O)CCCCCCCCCCCCCCCCC(=O)O)C(=O)O)C(=O)N[C@@H](Cc1ccccc1)C(=O)N[C@H](C(=O)N[C@@H](CCC(N)=O)C(=O)N[C@@H](Cc1c[nH]c2ccccc12)C(=O)N[C@@H](CC(C)C)C(=O)N[C@@H](CCS(C)(=O)=O)C(=O)N[C@@](C)(CC(=O)O)C(=O)N[C@H](C(N)=O)[C@@H](C)O)C(C)C
B3: TP623 (peptide)
peptide: H[Aib]QGTFTSD[Phe(4-CH2NH2)]([AEEA-γGlu-C18 diacid])SKYLDARAAQDFVQWL[Met(O2)]DT-NH2
modifications: N-terminus assumed
SMILES: CC(C)C[C@H](NC(=O)[C@H](Cc1ccc(O)cc1)NC(=O)[C@H](CCCCN)NC(=O)[C@H](CO)NC(=O)[C@H](Cc1ccc(CNC(=O)COCCOCCNC(=O)CC[C@H](NC(=O)CCCCCCCCCCCCCCCCC(=O)O)C(=O)O)cc1)NC(=O)[C@H](CC(=O)O)NC(=O)[C@H](CO)NC(=O)[C@@H](NC(=O)[C@H](Cc1ccccc1)NC(=O)[C@@H](NC(=O)CNC(=O)[C@H](CCC(N)=O)NC(=O)C(C)(C)NC(=O)[C@@H](N)Cc1c[nH]cn1)[C@@H](C)O)[C@@H](C)O)C(=O)N[C@@H](CC(=O)O)C(=O)N[C@@H](C)C(=O)N[C@@H](CCCNC(=N)N)C(=O)N[C@@H](C)C(=O)N[C@@H](C)C(=O)N[C@@H](CCC(N)=O)C(=O)N[C@@H](CC(=O)O)C(=O)N[C@@H](Cc1ccccc1)C(=O)N[C@H](C(=O)N[C@@H](CCC(N)=O)C(=O)N[C@@H](Cc1c[nH]c2ccccc12)C(=O)N[C@@H](CC(C)C)C(=O)N[C@@H](CCS(C)(=O)=O)C(=O)N[C@@H](CC(=O)O)C(=O)N[C@H](C(N)=O)[C@@H](C)O)C(C)C
B4: TP622 (peptide)
peptide: H[Aib]QGTFTSD[Phe(4-CH2NH2)]([AEEA-γGlu-C16 diacid])SKYLDARAAQDFVQWL[Met(O2)]DT-NH2
modifications: N-terminus assumed
SMILES: CC(C)C[C@H](NC(=O)[C@H](Cc1ccc(O)cc1)NC(=O)[C@H](CCCCN)NC(=O)[C@H](CO)NC(=O)[C@H](Cc1ccc(CNC(=O)COCCOCCNC(=O)CC[C@H](NC(=O)CCCCCCCCCCCCCCC(=O)O)C(=O)O)cc1)NC(=O)[C@H](CC(=O)O)NC(=O)[C@H](CO)NC(=O)[C@@H](NC(=O)[C@H](Cc1ccccc1)NC(=O)[C@@H](NC(=O)CNC(=O)[C@H](CCC(N)=O)NC(=O)C(C)(C)NC(=O)[C@@H](N)Cc1c[nH]cn1)[C@@H](C)O)[C@@H](C)O)C(=O)N[C@@H](CC(=O)O)C(=O)N[C@@H](C)C(=O)N[C@@H](CCCNC(=N)N)C(=O)N[C@@H](C)C(=O)N[C@@H](C)C(=O)N[C@@H](CCC(N)=O)C(=O)N[C@@H](CC(=O)O)C(=O)N[C@@H](Cc1ccccc1)C(=O)N[C@H](C(=O)N[C@@H](CCC(N)=O)C(=O)N[C@@H](Cc1c[nH]c2ccccc12)C(=O)N[C@@H](CC(C)C)C(=O)N[C@@H](CCS(C)(=O)=O)C(=O)N[C@@H](CC(=O)O)C(=O)N[C@H](C(N)=O)[C@@H](C)O)C(C)C
B5: TP618 (peptide)
peptide: H[αMeS]QGTFTSDYSKYLD[Aib]RAAK([AEEA-AEEA-γGlu-C16 diacid])DFVQWL[Met(O2)][αMeD]T-NH2
modifications: N-terminus assumed
SMILES: CC(C)C[C@H](NC(=O)[C@H](Cc1ccc(O)cc1)NC(=O)[C@H](CCCCN)NC(=O)[C@H](CO)NC(=O)[C@H](Cc1ccc(O)cc1)NC(=O)[C@H](CC(=O)O)NC(=O)[C@H](CO)NC(=O)[C@@H](NC(=O)[C@H](Cc1ccccc1)NC(=O)[C@@H](NC(=O)CNC(=O)[C@H](CCC(N)=O)NC(=O)[C@](C)(CO)NC(=O)[C@@H](N)Cc1c[nH]cn1)[C@@H](C)O)[C@@H](C)O)C(=O)N[C@@H](CC(=O)O)C(=O)NC(C)(C)C(=O)N[C@@H](CCCNC(=N)N)C(=O)N[C@@H](C)C(=O)N[C@@H](C)C(=O)N[C@@H](CCCCNC(=O)COCCOCCNC(=O)COCCOCCNC(=O)CC[C@H](NC(=O)CCCCCCCCCCCCCCC(=O)O)C(=O)O)C(=O)N[C@@H](CC(=O)O)C(=O)N[C@@H](Cc1ccccc1)C(=O)N[C@H](C(=O)N[C@@H](CCC(N)=O)C(=O)N[C@@H](Cc1c[nH]c2ccccc12)C(=O)N[C@@H](CC(C)C)C(=O)N[C@@H](CCS(C)(=O)=O)C(=O)N[C@@](C)(CC(=O)O)C(=O)N[C@H](C(N)=O)[C@@H](C)O)C(C)C

Legend:
[1] = molecular target: human Glucagon receptor (GCGR) (human, UniProt P47871 26-477); experiment: cell-based or functional assay
[2] = molecular target: human GLP-1 receptor (GLP1R) (human, UniProt P43220 24-463); experiment: cell-based or functional assay

human Glucagon receptor (GCGR), sequence (P47871 26-477): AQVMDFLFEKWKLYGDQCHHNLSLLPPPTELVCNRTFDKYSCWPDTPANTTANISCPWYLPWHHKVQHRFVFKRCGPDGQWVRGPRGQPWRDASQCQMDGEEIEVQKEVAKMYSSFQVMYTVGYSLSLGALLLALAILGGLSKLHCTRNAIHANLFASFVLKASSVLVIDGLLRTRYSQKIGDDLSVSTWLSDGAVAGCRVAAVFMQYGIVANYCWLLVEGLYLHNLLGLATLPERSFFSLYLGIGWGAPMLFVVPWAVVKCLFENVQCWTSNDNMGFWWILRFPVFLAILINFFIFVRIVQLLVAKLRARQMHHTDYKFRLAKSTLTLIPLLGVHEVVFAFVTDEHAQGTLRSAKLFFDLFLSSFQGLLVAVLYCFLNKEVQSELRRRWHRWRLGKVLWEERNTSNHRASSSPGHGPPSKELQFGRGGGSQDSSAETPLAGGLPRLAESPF

Row | Binder | GCGR EC50 human [1] | GLP1R EC50 human [2]
1 | B1 | 1.26 nM | 8.58 nM
2 | H[αMS]QGTFTSDYSKYLD[Aib]RAAQK([PEG2′-PEG2′-γGlu-C16 diacid])FVQWL[Met(O2)][αMD]T-NH2 [TP619] | 0.05 nM | 0.38 nM
3 | B2 | 0.25 nM | 1.94 nM
4 | B3 | 0.09 nM | 0.17 nM
5 | B4 | 0.03 nM | 0.09 nM
6 | B5 | 0.36 nM | 2.48 nM
